Measured values published in article PMC8809517, “Cofactor-independent RNA editing by a synthetic S-type PPR protein”.
Positions count from the first letter of the chain named.

Columns and labels:
Assay in all cases: high-throughput RNA pulldown from lysate on Ni-NTA beads; HRP: 50 mM Tris pH 8, 150 mM NaCl, 1 mM beta-mercaptoethanol, 50 ug/ml BSA, 3 ug/ml yeast RNA, 0.5% heparin; ITC and FP: Tris pH 8, 200 mM KCl, 5% glycerol; MST: 50 mM Tris pH 8, 200 mM NaCl, 1 mM DTT, BSA, heparin, 0.05% Tween 20
Conditions in all cases: tags: N-terminal His-eGFP
[1] = target: T1, GFP-9S library array, motif 4 ND D124Q (synthetic construct, D124Q)
T1 chain: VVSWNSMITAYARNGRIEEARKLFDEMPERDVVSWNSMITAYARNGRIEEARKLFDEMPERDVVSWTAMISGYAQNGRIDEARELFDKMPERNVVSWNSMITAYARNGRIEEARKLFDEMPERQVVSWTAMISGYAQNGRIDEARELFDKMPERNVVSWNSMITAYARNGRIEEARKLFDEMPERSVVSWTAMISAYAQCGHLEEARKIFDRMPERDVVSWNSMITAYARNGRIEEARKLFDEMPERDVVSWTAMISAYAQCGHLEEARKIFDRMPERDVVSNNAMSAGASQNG

[2] = target: T2, GFP-9S library array, motif 4 ND N98Y;D124S (synthetic construct, N98Y;D124S)
T2 chain: T1 chain with N98Y, Q124S

[3] = target: T3, GFP-9S library array, motif 4 ND N98K;D124Q (synthetic construct, N98K;D124Q)
T3 chain: T1 chain with N98K

[4] = target: T4, GFP-9S library array, motif 4 ND N98I;D124N (synthetic construct, N98I;D124N)
T4 chain: T1 chain with N98I, Q124N

[5] = target: T5, GFP-9S library array, motif 4 ND N98S;D124P (synthetic construct, N98S;D124P)
T5 chain: T1 chain with N98S, Q124P

B1: Cy5-rpoA-G (ssRNA)
RNA: AUUAGACGUGA
[1]; label: 5' Cy5
  Kd: 898 nM
[2]; label: 5' Cy5
  Kd: 224 nM
[3]; label: 5' Cy5
  Kd: 81.3 nM
[4]; label: 5' Cy5
  Kd: 117 nM
[5]; label: 5' Cy5
  Kd: 121 nM

B2: Cy5-rpoA (ssRNA)
RNA: AUUACACGUGA
[1]; label: 5' Cy5
  Kd: 68 nM
[2]; label: 5' Cy5
  Kd: 168 nM
[3]; label: 5' Cy5
  Kd: 71.3 nM
[4]; label: 5' Cy5
  Kd: 96.4 nM
[5]; label: 5' Cy5
  Kd: 122 nM

B3: IR-rpoA-A (ssRNA)
RNA: AUUAAACGUGA
[1]; label: 5' IRDye 800CW
  Kd: 490 nM
[2]; label: 5' IRDye 800CW
  Kd: 911 nM
[3]; label: 5' IRDye 800CW
  Kd: 110 nM
[4]; label: 5' IRDye 800CW
  Kd: 150 nM
[5]; label: 5' IRDye 800CW
  Kd: 224 nM

B4: IR-rpoA-U (ssRNA)
RNA: AUUAUACGUGA
[1]; label: 5' IRDye 800CW
  Kd: 25.9 nM
[2]; label: 5' IRDye 800CW
  Kd: 134 nM
[3]; label: 5' IRDye 800CW
  Kd: 63.7 nM
[4]; label: 5' IRDye 800CW
  Kd: 18.2 nM
[5]; label: 5' IRDye 800CW
  Kd: 253 nM
